Assay results from patent publication US20260234738A1 (Regeneron, published 2026).
Changes are numbered by the printed parent chain.

B1: mAb10985 (antibody, V domains shown)
VH: EVQLVESGGGLVQPGRSLRLSCAASGFTFDDYAMHWVRQAPGKGLEWVSGISWNRGSIGYADSVKGRFTISRDNAKNSLYLQMSSLRAEDTALYYCAKDGERWDSVVVPSARNGMDVWGQGTTVTVSS
VL: QSVLTQPPSVSGAPGQRVTISCTGSSSNIGAGYDVHWYQQLPGTAPKLLIYGNSNRPSGVPDRFSGSKSGTSASLAITGLQAEDEADYYCQSYDSSLSGSYVFGTGTKVTVLG
B2: mAb10989 (antibody, V domains shown)
VH: QVQLVQSGAEVKKPGASVKVSCKASGYIFTGYYMHWVRQAPGQGLEWMGWINPNSGGANYAQKFQGRVTLTRDTSITTVYMELSRLRFDDTAVYYCARGSRYDWNQNNWFDPWGQGTLVTVSS
VL: QSALTQPASVSGSPGQSITISCTGTSSDVGTYNYVSWYQQHPGKAPKLMIFDVSNRPSGVSDRFSGSKSGNTASLTISGLQAEDEADYYCSSFTTSSTVVFGGGTKLTVLG
B3: mAb10971 (antibody, V domains shown)
VH: EVQLVESGGGLIQPGGSLRLSCAASGVTVSSNYMSWVRQAPGKGLEWVSVIYSGGSTFYSDSVKGRFSISRDNSKNTLYLQMNSLRAEDTAVYYCARDLYYYGMDVWGQGTTVTVSS
VL: DIQLTQSPSFLSASVGDRVTITCRASQGISTYLAWYQQKPGKAPKLLIYAASTLQSGVPSRFSGSGSGTEFTLTISSLQPEDFATYYCQQLDSYPGLTFGGGTKVEIKR
B4: mAb10964 (antibody, V domains shown)
VH: QVQLQESGPGLVKPSETLSLTCTVSGGSINNYYWIWIRQPPGKGLEWIGYIYHSGSTNYNPSLKSRVTISVDTSKNQFSLKVSSVTAADTAVYYCANMVRGVYEDDYWGQGTLVTVSS
VL: DIQMTQSPSSLSASVGDRVTITCRASQSISNYLNWYQQKPGKAPKLLIFAASSLRSGVPSRFSGSGSGTDFTLTISSLHPEDFATYYCQQNYNTPLTFGPGTKVDIKR
B5: mAb10965 (antibody, V domains shown)
VH: EVQLVESGGGLIQPGGSLRLSCAASVFTVSYNYMSWVRQAPGKGLEWVSVIYSGGSTYYADSVKGRFTISRDNSKNTLYLQMNSLRAEDTAVYYCARALPGWGGSFEYFDYWGQGTLVTVSS
VL: not shown
B6: mAb10966 (antibody, V domains shown)
VH: EVQLVESGGGLVQPGGSLRLSCAASGLTVSSNYMSWVRQAPGKGLEWVSVIYSGGSTFYADSVKGRFTISRDNSKNTLYLQMNSLRPEDTAVYYCAREGRIAATGYGMDVWGQGTTVTVSS
VL: not shown
B7: mAb10967 (antibody, V domains shown)
VH: EVQLVESGGGLVQPGGSLRLSCAASGFTVSSNYMSWVRQAPGKGLEWVSVIYPGGSTFYADSVKGRFTISRDNSKNTLYLQMNSLRAEDTAVYYCARDQRDFAWGQGTLVTVSS
VL: DIQMTQSPSSLSASVGDRVTITCQASQDISNYLNWYQQKPGKAPKLLIYDASNLETGVPSRFSGSGSGTDFTFTISGLQPEDIATYYCQQYDNLPPTFGQGTRLEIKR
B8: mAb10954 (antibody, V domains shown)
VH: EVQLVESGGGLVQPGGSLRLSCAASGITVSSNYMSWVRQAPGKGLEWVSLIYSGGSTYYADSVKGRFTISRDNSKNTLYLQMNSLRVEDTAVYYCARDHGMAAAGYNYWGQGTLVTVSS
VL: B7 VL with S30N, N31K, S76N, G77S, I83F, Y87F, T97A, R103K, L104V
B9: mAb10955 (antibody, V domains shown)
VH: EVQLVESGGGLVQPGGSLRVSCAASGFTVSRNYMSWVRQAPGKGLEWVSVIYSGGSTFYADSVKGRFTISRDNSKNTLYLQMNSLRAEDTAIYYCARYIPRFDPWGQGTLVTVSS
VL: B7 VL with Y36F, K42R, G77S, P96I

Legend:
Test in all cases: Luminex beads, supernatant
[1] = molecular target: Bt-SARS-CoV-2 Spike Protein (RBD) (R319-F541).mFc (SARS-CoV-2)
[2] = molecular target: SARS-CoV-2 Spike Protein (RBD) (R319-F541).mFc (SARS-CoV-2)
[3] = molecular target: SARS-CoV-2 Spike Protein (RBD) (R319-F541).hFc (SARS-CoV-2)

Binder | MFI [1] [MFI] | MFI [2] [MFI] | MFI [3] [MFI]
B1 | 15500 | 29400 | 31100
B2 | 11200 | 19600 | 22400
B3 | 16700 | 28700 | 30000
B4 | 19200 | 32400 | 33100
B5 | 13700 | 27100 | 29600
B6 | 17900 | 30400 | 30800
B7 | 16800 | 29600 | 28700
B8 | 18400 | 31300 | 31800
B9 | 16800 | 30800 | 31200
